In the test the target is FMAL-labeled F-actin (rabbit skeletal muscle) (rabbit) (UniProt P68135). Kind of test: FRET or BRET.
Take “TMR-C0-C2^(Cys249, L349R), unphosphorylated (domain or fragment)”: the change of FRET against WT at 2.5 uM C0-C2 (direction not told) came to 10%.

“TMR-C0-C2^(P330C, T59A), unphosphorylated (domain or fragment)” registered an increase of FRET over WT at 2.5 uM C0-C2 of 21%.

“TMR-C0-C2^(Cys249, L352P), PKA-phosphorylated (domain or fragment)” returned an increase of FRET over WT at 2.5 uM C0-C2 of 74 to 160%.

As for “TMR-C0-C2^(P330C, R282W), PKA-phosphorylated (domain or fragment)”, the increase of FRET over WT at 2.5 uM C0-C2 was 105%.

For the substance “TMR-C0-C2^(P330C, L349R), unphosphorylated (domain or fragment)”, the increase of FRET over WT at 2.5 uM C0-C2 was 89%.

On to “TMR-C0-C2^(P330C, L349R), PKA-phosphorylated (domain or fragment)”, for which the increase of FRET over WT at 2.5 uM C0-C2 was found to be 166%.

On to “TMR-C0-C2^(S85C, L349R), unphosphorylated (domain or fragment)”, for which the change of FRET against WT at 2.5 uM C0-C2 (direction not told) stood at 22%.

As to “TMR-C0-C2^(Cys249, L349R), PKA-phosphorylated (domain or fragment)”, the change of FRET against WT at 2.5 uM C0-C2 (direction not told) is 31%.

Consider “TMR-C0-C2^(P330C, L352P), PKA-phosphorylated (domain or fragment)”, for which the increase of FRET over WT at 2.5 uM C0-C2 was in the range of 74 to 160%.

“TMR-C0-C2^(S85C, E334K), PKA-phosphorylated (domain or fragment)”: the FRET as percent of WT at 2.5 uM C0-C2 (% of wild type FRET) came out at 45.

“TMR-C0-C2^(S85C, L349R), PKA-phosphorylated (domain or fragment)” registered a change of FRET against WT at 2.5 uM C0-C2 (direction not told) of 4%.

The record behind these values is article doi:10.1101/2022.09.07.507024.
